± gives the standard deviation of the averaged measurements.
Test system: ATP
Assay: switch fluorescence ratio, 500 uM ATP over buffer (Cy3 cluster intensity, sum of 5 cycles each) (fold (ratio)); higher = stronger signal-on switching upon ATP binding; sequences stand for … in TCGTCGGCAGCGTCAGATGTGTATAAGAGACAGTTTTTTTTTTTTTTTTTTTTTTTTT…TC
Details: aptamer strand: ATP DNA aptamer (quencher-CACCTGGGGGAGTATTGCGGAGGAAGG + anchor), 100 nM annealed; ATP concentration: 500 uM
Procedure, shortened: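 Between each of five buffer/ATP cycles, the flow-cell was stripped with NaOH and re-annealed. Each cycle imaged Cy3-labelled switching-strand clusters, annealed to 100 nM quencher-labelled ATP aptamer on a modified Illumina MiSeq flow-cell, first in selection buffer and then after 15 min with 500 uM ATP at 22 °C. The fluorescence ratio is summed target-cycle over summed buffer-cycle Cy3 intensity per cluster, averaged per switch-domain sequence, with clusters outside 100-1000 RFU excluded.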
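Note: ATP exposure 15 min at 22 °C before imaging.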

Row | Sequence | switch fluorescence ratio
1 | CGAGGCAAGT | 5.07 ± 1.3
2 | CGAGGCTCGT | 1.02 ± 0.065
3 | CGAGGGATGT | 0.982 ± 0.034
4 | CGAGGGATTT | 1.05 ± 0.013
5 | CGAGGGCTAG | 1.04 ± 0.074
6 | CGAGGGCTGA | 1.02 ± 0.015
7 | CGAGGGGACG | 1 ± 0.013
8 | CGAGGGGAGT | 1.006 ± 0.0011
9 | CGAGGGGGGA | 0.996 ± 0.028
10 | CGAGGGGTAG | 0.996 ± 0.026
11 | CGAGGGTAAC | 0.983 ± 0.029
12 | CGAGGGTACG | 1 ± 0.032
13 | CGAGGTTGAC | 1.0385 ± 0.00054
14 | CGAGTAAACG | 1.02 ± 0.017
15 | CGAGTAAATG | 1.01 ± 0.021
16 | CGAGTACTGG | 1.03 ± 0.016
17 | CGAGTATTGG | 0.974 ± 0.018
18 | CGAGTCCCCT | 1.04 ± 0.033
19 | CGAGTGGGGG | 0.987 ± 0.029
20 | CGAGTGTGTG | 0.97 ± 0.024
21 | CGAGTTACGG | 1.01 ± 0.019
22 | CGAGTTAGGC | 1.03 ± 0.063
23 | CGAGTTGATC | 0.973 ± 0.028

Row | Sequence | switch fluorescence ratio
24 | CGAGTTTG | 0.98 ± 0.056
25 | CGAGTTTTTG | 0.979 ± 0.014
26 | CGATAAATTA | 0.9971 ± 0.0044
27 | CGATAATGAA | 1 ± 0.029
28 | CGATACGGTG | 1.07 ± 0.035
29 | CGATACGTTG | 0.99 ± 0.011
30 | CGATAGATGT | 1 ± 0.024
31 | CGATAGTATT | 0.9854 ± 0.0063
32 | CGATATAGGA | 0.992 ± 0.011
33 | CGATATCGAG | 0.98 ± 0.051
34 | CGATATCGTG | 1 ± 0.019
35 | CGATATGATG | 1.01 ± 0.062
36 | CGATATGGGG | 1.01 ± 0.057
37 | CGATATGGGT | 0.9801 ± 0.0026
38 | CGATATTGCA | 1.02 ± 0.025
39 | CGATCCAGTG | 1.39 ± 0.061
40 | CGATGAAGGC | 1.07 ± 0.031
41 | CGATGATATT | 1.02 ± 0.053
42 | CGATGATCGG | 1 ± 0.016
43 | CGATGCACGG | 1.106 ± 0.0049
44 | CGATGCATGG | 1.71 ± 0.19
45 | CGATGCTACA | 1.06 ± 0.048
46 | CGATGGGATA | 1.03 ± 0.02

Row | Sequence | switch fluorescence ratio
47 | CGATGGGCCT | 1.01 ± 0.024
48 | CGATGGGTCG | 1 ± 0.066
49 | CGATGGTGAG | 1 ± 0.047
50 | CGATGTGAGA | 1.04 ± 0.022
51 | CGATGTGCTT | 1.01 ± 0.024
52 | CGATGTGTGC | 1.17 ± 0.0054
53 | CGATGTGTGT | 0.991 ± 0.035
54 | CGATTAAGAT | 1.02 ± 0.021
55 | CGATTAAGGC | 1.003 ± 0.0026
56 | CGATTACTCC | 2.82 ± 0.089
57 | CGATTATTAT | 0.975 ± 0.031
58 | CGATTCGGGG | 1.01 ± 0.03
59 | CGATTCGGTA | 1.01 ± 0.042
60 | CGATTCTTTT | 0.979 ± 0.01
61 | CGATTGCTAG | 1.02 ± 0.058
62 | CGATTGGGGT | 1.02 ± 0.034
63 | CGATTTCGTT | 0.984 ± 0.013
64 | CGATTTGCCT | 0.9806 ± 0.006
65 | CGATTTGGGC | 0.982 ± 0.021
66 | CGATTTTGA | 0.969 ± 0.043
67 | CGATTTTGGA | 0.9941 ± 0.0078
68 | CGCAAAAAGT | 1.0219 ± 0.00086
69 | CGCAAAGAAG | 1.08 ± 0.02

Row | Sequence | switch fluorescence ratio
70 | CGCACCATGC | 2.41 ± 0.073
71 | CGCACCCTTT | 1.093 ± 0.0056
72 | CGCACGGTAG | 1.05 ± 0.032
73 | CGCACTGTGG | 1.028 ± 0.0031
74 | CGCAGAGGCT | 1.06 ± 0.044
75 | CGCAGAGTGG | 1.01 ± 0.018
76 | CGCAGGAAAG | 0.973 ± 0.0023
77 | CGCAGGATTT | 1.09 ± 0.19
78 | CGCAGGCCTC | 1.47 ± 0.062
79 | CGCAGGGTGG | 1.05 ± 0.022
80 | CGCAGGTGGG | 1.08 ± 0.042
81 | CGCAGGTTTG | 1.03 ± 0.011
82 | CGCAGTTCTT | 1.198 ± 0.0086
83 | CGCATTTTTT | 1.13 ± 0.12
84 | CGCCAAATTT | 1.07 ± 0.1
85 | CGCCACTGTG | 1.06 ± 0.044
86 | CGCCCCTGTA | 1.04 ± 0.035
87 | CGCCGGGTTG | 0.984 ± 0.033
88 | CGCCGTGTCA | 1.02 ± 0.068
89 | CGCCTGTTAG | 0.99 ± 0.016
90 | CGCGAAAGAA | 0.9682 ± 0.0033
91 | CGCGAACATG | 0.984 ± 0.049
92 | CGCGAAGGCT | 1.04 ± 0.015

Row | Sequence | switch fluorescence ratio
93 | CGCGAATATA | 1 ± 0.019
94 | CGCGAATTTG | 1.02 ± 0.021
95 | CGCGACTAAA | 0.9951 ± 0.0066
96 | CGCGAGGCGT | 1.07 ± 0.12
97 | CGCGATAGTA | 1.27 ± 0.026
98 | CGCGATGGGT | 1.08 ± 0.033
99 | CGCGATGTAC | 3.82 ± 0.15
100 | CGCGCAGGGA | 1.03 ± 0.013
101 | CGCGCGGTTT | 1.02 ± 0.041
102 | CGCGCTTTTG | 1.01 ± 0.017
103 | CGCGGACGGT | 1.05 ± 0.052
104 | CGCGGATTGG | 0.9903 ± 0.0094
105 | CGCGGCAAGG | 1.32 ± 0.31
106 | CGCGGGAGGG | 1.04 ± 0.022
107 | CGCGGGGGGA | 1.03 ± 0.06
108 | CGCGGGGGTG | 1.03 ± 0.024
109 | CGCGGGGTCC | 1.05 ± 0.048
110 | CGCGGGTAAC | 1.036 ± 0.0077
111 | CGCGGGTTGA | 1.053 ± 0.0094
112 | CGCGGTACGG | 1.47 ± 0.39
113 | CGCGGTTCTG | 1.01 ± 0.029
114 | CGCGTAGAC | 1.66 ± 0.14
115 | CGCGTATTGT | 0.999 ± 0.016

Row | Sequence | switch fluorescence ratio
116 | CGCGTGGCGG | 0.999 ± 0.024
117 | CGCGTTGGCA | 1.04 ± 0.028
118 | CGCTCACGGT | 1.066 ± 0.0026
119 | CGCTCGGGTT | 1.003 ± 0.0025
120 | CGCTCGTTGT | 0.9559 ± 0.0033
121 | CGCTGACCTT | 1.2 ± 0.037
122 | CGCTGGGGGA | 1.055 ± 0.0022
123 | CGCTGGGGTT | 0.9962 ± 0.0047
124 | CGCTGTGAAG | 1.02 ± 0.012
125 | CGCTGTGATG | 1.013 ± 0.0053
126 | CGCTGTTTTT | 1.02 ± 0.024
127 | CGCTTATCCT | 1.1 ± 0.038
128 | CGCTTCTAGG | 1.04 ± 0.024
129 | CGCTTGAGA | 1.04 ± 0.026
130 | CGCTTGGCTG | 0.981 ± 0.051
131 | CGCTTGGTAC | 3.39 ± 0.079
132 | CGCTTTAATA | 1.07 ± 0.019
133 | CGGAAAATTT | 1.01 ± 0.075
134 | CGGAAAGTGT | 0.996 ± 0.024
135 | CGGAAGCATG | 1.13 ± 0.047
136 | CGGAAGCGTG | 0.984 ± 0.016
137 | CGGAAGCTCT | 1.036 ± 0.0028
138 | CGGAAGGGCC | 0.995 ± 0.03

Row | Sequence | switch fluorescence ratio
139 | CGGAAGTGCG | 1.0061 ± 6.8e-05
140 | CGGAATGGTT | 1.04 ± 0.036
141 | CGGACCGGGG | 0.996 ± 0.041
142 | CGGACCTAGT | 0.9689 ± 0.0042
143 | CGGACGGCTC | 1.093 ± 0.01
144 | CGGACTGGTT | 1.005 ± 0.0057
145 | CGGACTTATT | 0.9686 ± 0.0054
146 | CGGAGAATAG | 1.234 ± 0.012
147 | CGGAGACCGT | 1 ± 0.022
148 | CGGAGACGTG | 1 ± 0.025
149 | CGGAGAGGGT | 1 ± 0.029
150 | CGGAGAGTAG | 1.03 ± 0.018
151 | CGGAGGAATT | 1.2 ± 0.11
152 | CGGAGGATGG | 0.9867 ± 0.0084
153 | CGGAGGCAAG | 1.14 ± 0.045
154 | CGGAGGGGAT | 1.062 ± 0.005
155 | CGGAGGGGCC | 1.02 ± 0.033
156 | CGGAGTCGGG | 1.04 ± 0.052
157 | CGGAGTTGCG | 0.98 ± 0.013
